These results are taken from publication PMC11088876 (2024).

Assay [1] concerns the target Recombinant human ActRIIA-Fc (human, UniProt P27037 20-135). Nature of the assay: SPR. A general note: SPR reads the build-up and loss of mass on a sensor chip optically.
The target of assay [2] is T1, Recombinant human ActRIIB-Fc (human, UniProt Q13705 19-137).
T1 chain: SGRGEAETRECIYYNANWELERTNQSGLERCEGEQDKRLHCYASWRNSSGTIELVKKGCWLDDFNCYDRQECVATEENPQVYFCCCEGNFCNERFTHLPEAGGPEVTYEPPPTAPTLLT
Nature of the assay: SPR.

Chain of Recombinant human ActRIIA-Fc (P27037 20-135): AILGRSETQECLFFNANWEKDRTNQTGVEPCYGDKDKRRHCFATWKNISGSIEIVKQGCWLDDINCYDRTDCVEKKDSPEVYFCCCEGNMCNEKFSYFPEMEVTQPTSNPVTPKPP

B1: Recombinant human ActE (bacterially derived, provided by R&D Systems) (ligand)
chain: TPTCEPATPLCCRRDHYVDFQELGWRDWILQPEGYQLNYCSGQCPPHLAGSPGIAASFHSAVFSLLKANNPWPASTSCCVPTARRPLSLLYLDHNGNVVKTDVPDMVVEACGCS
In general, Kd refers to the constant that tells how readily two partners part at equilibrium. For B1, the Kd in assay [1] came out at 5 nM; in assay [2], 20 nM.
